Key:
[1] = tested on: HIV-1JR-FL chronically infected cells (PM1/JR-FL); experiment: FACS binding to functional envelope on infected cell surface; conditions: for reactivity in the absence of sCD4: absence of sCD4, FIG. 2
Method: It has been known that HIV-1 has a functional envelope causing membrane fusion with target cells on viral particles and on the surfaces of chronically infected cells. In order to study whether or not the produced antibody is able to recognize this functional envelope, the binding activity of the antibody to the cell surface of HIV-1JR-FL chronically infected cells (PM1/JR-FL) was examined with a flow cytometer. […] PM1/JR-FL cells (2×10^5) were placed in a test tube. Thereafter, 50 μl of sCD4 that had been diluted with a FACS buffer (2% BSA, 0.02% Azide in PBS; pH 7.23) and adjusted to a concentration of 1 μg/ml, or 50 μl of only the FACS buffer, was added to the test tube. The mixture was reacted for 15 minute. Thereafter, 50 μl of monoclonal antibody diluted with a FACS buffer to a concentration of 1 to 3 μg/ml was then added to the reaction mixture, and the obtained mixture was reacted at room temperature for 45 minutes. The resultant was washed with a FACS buffer two times, and 50 μl of FITC-bound anti-human IgG antibody (Sigma) diluted with a FACS buffer at a ratio of 1:200 was then added to the resultant. The mixture was incubated at 4° C. in a dark place for 30 minutes. Thereafter, the resultant was washed with a FACS buffer two times, and it was then fixed with 0.5 ml of fixing solution {2% (w/v) paraformaldehyde in PBS}. The fixed sample was analyzed with FACSCalibur (Beckton-Dickinson). The incorporated data was analyzed with Cell Quest (Beckton-Dickinson). […] Differing from the reaction with the gp120 monomer, in the case of a functional envelope consisting of a trimer, the binding inhibition of CD4bs antibodies by sCD4 was not observed. On the other hand, with regard to CD4i antibodies, the 4 types of antibodies all had only weak reactivity in the absence of sCD4, but in the presence of sCD4, such reactivity was increased up to the level equivalent to the reactivity of a V3 antibody.

[2] = tested on: pseudotyped HIV-1 viruses (envelopes of 4 types of HIV-1 strains); experiment: Single-round neutralization of pseudotyped viruses, 4 strains overall; type: cell-based; conditions: 4 types of envelope pseudotyped viruses overall; FIG. 3
Description: With regard to 20 types of antibodies, their binding activity to the cell surface, the amount of antibody produced, and the like were taken into consideration. As a result, regarding 15 types of antibodies, the number of cells was increased, a culture supernatant was collected and was then filtrated, and a monoclonal antibody was then purified using a protein A column or protein G column (GE Healthcare). The neutralizing activity of the thus purified monoclonal antibody on pseudotyped HIV-1 viruses was examined at an antibody concentrations of 10 μg/ml and 2 μg/ml, using the envelopes of 4 types of HIV-1 strains commonly used in laboratories (FIG. 3). In order to produce such pseudotyped virus, on the day before transfection, 293T cells were dispersed on a 100-mm collagen-coated plate (IWAKI) to a cell concentration of 4×10^6, and they were then cultured at 37° C. overnight. Thereafter, 5 μg of pNL4-3-Luc-E^−R^− or 5 μg of pSG3ΔEnv (Li M. et. al, J. Virol. 79, pp. 10108-10125, 2005), 4.5 μg of an envelope expression vector, and 0.5 μg of a pRSV-REV vector were introduced into the culture using Effectene (QIAGEN), and the obtained mixture was then cultured at 37° C. in 5% CO2. Twenty-four hours after initiation of the culture, a supernatant was recovered and was then pass through a 0.2-μm filter. Thereafter, it was then dispensed and was then conserved at −80° C. The obtained pseudotyped virus was subjected to a p24 Antigen ELISA kit (ZeptoMetrix Co.) to measure the amount of p24 antigen. A single-round neutralization experiment using the pseudotyped virus was carried out as follows. On the day before the experiment, GHOST-hi5 cells or TZM-bl cells were dispersed on a 96-well flat bottom culture plate (Falcon) at a concentration of 2×10^4 cells/200 μl. […] Ten seconds after the addition of the luciferase substrate, fluorescence intensity was measured with a TR477 microplate luminometer (Applied Biosystems) (in the case of GHOST-hi5). […] Thereafter, β-galactosidase activity was measured with the TR477 microplate luminometer. […]

SVPC13 = experiment: Neutralization of subtype C virus panel, SVPC13; type: cell-based, HIV-1; conditions: compared with a control antibody, FIG. 11
Description: (§1) As with the panels of subtype (clade) B viruses (SVPB), the panels of subtype C viruses have also been supplied. […] Thus, it is considered that they are important for the studies of cross-clade neutralization by antibodies.

SVPC15 = experiment: Neutralization of subtype C virus panel, SVPC15; type: cell-based, HIV-1; conditions: compared with a control antibody, FIG. 11
Description: as §1

93TH976.17 = experiment: Neutralization of subtype AE virus 93TH976.17; type: cell-based, HIV-1; conditions: 93TH976.17, subtype AE; FIG. 11
Description: as §1

93TH966.8 = experiment: Neutralization of subtype AE virus 93TH966.8; type: cell-based, HIV-1; conditions: 93TH966.8, subtype AE; FIG. 11
Description: as §1

gp120 [3] = target: T1, gp120 (Human immunodeficiency virus type 1 group M subtype B, UniProt P03378); conditions: epitope on gp120: V3L, CD4bs, CD4i
Method: Antibodies reacting with gp120 are classified into the following 4 types, depending on the types of reactive epitopes. Specifically, the 4 types are a CD4-binding site (CD4bs), a CD4-induced epitope (CD4i), a third variable loop (V3loop; V3L), and those that cannot be classified into the aforementioned groups (other epitopes). Whether or not an antibody binds to V3L is determined by ELISA using a synthetic peptide having the amino acid sequence of V3L (V3-peptide ELISA). […] On the day before the experiment, 100 μl of a peptide (NNT20) diluted in PBS at a concentration of 5 μg/ml was added to each well of a 96-well polypropyren plate, and it was then left at 4° C. overnight. After washing, 175 μl of a blocking buffer was added to each well, and was incubated at room temperature for 30 minutes. The plate was washed with an ELISA wash buffer three times, and a B cell culture supernatant diluted serially was then added to the wells. The plate was reacted at room temperature for 2 hours. […] After washing the resultant, color was developed using ALP-Substrate, and the absorbance (405 nm) was then measured. […]
On the other hand, soluble CD4 (sCD4; R&D Systems, Inc. Minneapolis, Minn.) exerts completely opposite influences on a CD4bs antibody and a CD4i antibody. […] After washing them, color was developed using ALP-Substrate, and the absorbance (405 nm) was then measured.

[4] = target: monomeric gp120 (gp120-SF2) (Human immunodeficiency virus type 1 group M subtype B, UniProt P03378); conditions: presence or absence of 0.5 μg/ml sCD4; FIG. 1
Method: The “gp120-capture ELISA” was applied to screen for the antibody-producing cells having an anti-gp120 activity (J. P. Moore et al., J. Virol. 67, pp. 6136-6151, 1993). […] Thereafter, a supernatant was removed, and 175 μl of a blocking buffer (2% bovine serum albumin; BSA, 0.1% Azide, PBS, pH 7.2) was added to the residue. The obtained mixture was left at rest at room temperature for 30 minutes. Thereafter, the well was washed with an ELISA wash buffer (0.15% Tween20, PBS, pH 7.2) three times, and 50 μl each of monomeric gp120 (gp120-SF2; Austral Biologicals, San Ramon, Calif.) was then added thereto. The obtained mixture was left at rest at room temperature for 2 hours. Thereafter, the resultant was washed with the ELISA wash buffer three times, so as to produce a “gp120-captured plate.” A culture supernatant of B cells was added to this plate, and the mixture was then reacted at room temperature for 2 hours. The resultant was washed with the ELISA wash buffer three times, and 100 μl of anti-human IgG-ALP, which had been diluted by a factor of 1000 with the ELISA buffer, was then added to the resultant. […] Thereafter, the absorbance (405 nm) was measured with a microplate reader.
Utilizing this property, monoclonal antibodies were classified. […] After washing them, color was developed using ALP-Substrate, and the absorbance (405 nm) was then measured.

strain 89.6 = experiment: Single-round neutralization of pseudotyped virus, 89.6; type: cell-based, HIV-1; conditions: 10 μg/ml and 2 μg/ml, FIG. 3
Description: (§2) With regard to 20 types of antibodies, their binding activity to the cell surface, the amount of antibody produced, and the like were taken into consideration. As a result, regarding 15 types of antibodies, the number of cells was increased, a culture supernatant was collected and was then filtrated, and a monoclonal antibody was then purified using a protein A column or protein G column (GE Healthcare). The neutralizing activity of the thus purified monoclonal antibody on pseudotyped HIV-1 viruses was examined at an antibody concentrations of 10 μg/ml and 2 μg/ml, using the envelopes of 4 types of HIV-1 strains commonly used in laboratories (FIG. 3). In order to produce such pseudotyped virus, on the day before transfection, 293T cells were dispersed on a 100-mm collagen-coated plate (IWAKI) to a cell concentration of 4×10^6, and they were then cultured at 37° C. overnight. […] Ten seconds after the addition of the luciferase substrate, fluorescence intensity was measured with a TR477 microplate luminometer (Applied Biosystems) (in the case of GHOST-hi5). […] Thereafter, β-galactosidase activity was measured with the TR477 microplate luminometer. […]

strain JR-FL = experiment: Single-round neutralization of pseudotyped virus, JR-FL; type: cell-based, HIV-1; conditions: 10 μg/ml and 2 μg/ml, FIG. 3
Description: as §2

JR-FL strain = experiment: MTT assay of combined use on JR-FL strain; type: cell-based; conditions: combined use with CCR5 inhibitor (maraviroc, MVC); HIV-1JRFL; FIG. 12
Method: By combining 0.5δ and 0.5γ in various concentrations, their neutralizing activity on a JR-FL strain was analyzed by an MTT assay. […] In order to analyze such synergistic effect, the analysis method of Chow/Talaley et al. and the 3-dimensional analysis method were applied. […]

[5] = tested on: HIV-1 of subtype B (Western type); experiment: MTT assay neutralization, 17 types of viral strains overall; type: cell-based; conditions: summary of Table 2
Method: Neutralizing activity on 17 types of viral strains including clinically isolated strains was studied (Table 2). For this neutralization experiment, the following MMT assay was applied. As a method, 2×10^3 PM1/CCR5 cells were infected with 100 TCID50 virus in the presence of the antibody in each concentration on a 96-well round-bottom micro culture plate, and the cells were then cultured at 37° C. for 7 days. Thereafter, 100 μl of a culture solution was removed from each well, and 10 μl of an MTT (3-[4,5-dimethylthiazol-2-yl]-2,5-diphenyltetrazolium bromide) solution dissolved in a phosphate-buffered saline (PBS) (7.5 mg/ml) was then added thereto. The obtained mixture was incubated at 37° C. for 3 hours. Thereafter, 100 μl of acidified isopropanol containing 4% Triton X-100 (vol/vol) was added to each well, so as to release formazan crystal. The absorbance (570 nm) was measured with a microplate reader, and the cell survival rate was calculated. This experiment was repeated 2 or 3 times. The antibody concentration necessary for inhibiting 50% virus infection (IC50) was calculated, and the antibody concentration corresponding to such IC50 was indicated with color-coding.
It should be noted that strains, which were not neutralized by the anti-V3 antibody, 0.5γ(1C10), were neutralized by the CD4bs antibodies, 0.5δ(3D6) and 49G2. That is to say, a complementary neutralization was observed.

[6] = tested on: Standard Virus Panels B; SVPB (12 types of pseudotyped viruses); experiment: Breadth of neutralization on Standard Virus Panels B; type: cell-based, HIV-1
Method: The neutralizing activity of the thus purified monoclonal antibody on pseudotyped HIV-1 viruses was examined at an antibody concentrations of 10 μg/ml and 2 μg/ml, using the envelopes of 4 types of HIV-1 strains commonly used in laboratories (FIG. 3). In order to produce such pseudotyped virus, on the day before transfection, 293T cells were dispersed on a 100-mm collagen-coated plate (IWAKI) to a cell concentration of 4×10^6, and they were then cultured at 37° C. overnight. Thereafter, 5 μg of pNL4-3-Luc-E^−R^− or 5 μg of pSG3ΔEnv (Li M. et. al, J. Virol. 79, pp. 10108-10125, 2005), 4.5 μg of an envelope expression vector, and 0.5 μg of a pRSV-REV vector were introduced into the culture using Effectene (QIAGEN), and the obtained mixture was then cultured at 37° C. in 5% CO2. […] Ten seconds after the addition of the luciferase substrate, fluorescence intensity was measured with a TR477 microplate luminometer (Applied Biosystems) (in the case of GHOST-hi5). […] Thereafter, β-galactosidase activity was measured with the TR477 microplate luminometer. Neutralizing activity was calculated in accordance with the expression {1−(t−c)/(n−c)}×100 (t: the fluorescence intensity of a sample; c: the background fluorescence intensity of only cells; n: the fluorescence intensity of a sample with no antibodies). […]

gp120 [7] = target: T1, gp120; conditions: 0.5δ(3D6) 5 μg/ml for 15 minutes versus control antibody 8D11; FIG. 4
Method: Thereafter, a supernatant was removed, and 175 μl of a blocking buffer (2% bovine serum albumin; BSA, 0.1% Azide, PBS, pH 7.2) was added to the residue. The obtained mixture was left at rest at room temperature for 30 minutes. Thereafter, the well was washed with an ELISA wash buffer (0.15% Tween20, PBS, pH 7.2) three times, and 50 μl each of monomeric gp120 (gp120-SF2; Austral Biologicals, San Ramon, Calif.) was then added thereto. The obtained mixture was left at rest at room temperature for 2 hours. Thereafter, the resultant was washed with the ELISA wash buffer three times, so as to produce a “gp120-captured plate.” A culture supernatant of B cells was added to this plate, and the mixture was then reacted at room temperature for 2 hours. The resultant was washed with the ELISA wash buffer three times, and 100 μl of anti-human IgG-ALP, which had been diluted by a factor of 1000 with the ELISA buffer, was then added to the resultant. The obtained mixture was left at rest at room temperature for 1 hour. The resultant was washed with the ELISA wash buffer three times. Phosphatase substrate (SIGMA) was dissolved in a substrate buffer (Diethanol amine buffer; pH 9.85), and 100 μl of the obtained solution was then added to each well, followed by leaving the mixture at rest at room temperature for 10 to 30 minutes. Thereafter, the absorbance (405 nm) was measured with a microplate reader. […]

T1 sequence (P03378 32-509): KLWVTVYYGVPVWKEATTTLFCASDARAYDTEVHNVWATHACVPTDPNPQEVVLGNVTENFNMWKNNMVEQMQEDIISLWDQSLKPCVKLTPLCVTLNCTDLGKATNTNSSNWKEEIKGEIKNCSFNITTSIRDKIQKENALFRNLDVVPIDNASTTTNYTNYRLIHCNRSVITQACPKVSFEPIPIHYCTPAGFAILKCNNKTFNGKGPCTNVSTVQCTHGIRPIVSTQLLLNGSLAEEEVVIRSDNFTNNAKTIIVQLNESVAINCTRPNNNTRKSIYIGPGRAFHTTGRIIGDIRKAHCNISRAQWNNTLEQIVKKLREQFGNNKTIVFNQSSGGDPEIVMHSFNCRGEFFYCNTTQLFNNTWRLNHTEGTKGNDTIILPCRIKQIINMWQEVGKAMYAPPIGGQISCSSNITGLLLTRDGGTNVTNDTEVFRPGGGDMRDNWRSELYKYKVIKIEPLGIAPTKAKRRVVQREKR
Sequence of monomeric gp120 (gp120-SF2) (P03378 32-509): as above

B1: 42F9: IgG1 κ monoclonal antibody to gp120 CD4-binding site; VH SEQ ID NO: 7, VL SEQ ID NO: 8; FERM BP-11022 (antibody, listed as Homo sapiens, V domains shown)
VH: EVQLVESGGGVVRPGGSLRLSCAASGFAFGEYGMSWVRQAPGKGLEWVSGINWNGGSTGYADSVQGRFTTSRDNAKNSLYLQMNSLRAEDTALYYCARDENYDILTGNYYYGMDVWGQGTTVTVSS
VL: DIQLTQSPSSLSASVGDRVTITCRASQSISNYLNWYQQKPGKAPKLLIYAASSLQSGVPSRFSGSGSGTDFTLTISSLQPEDFATFYCQQSHSIPYTFGQGTKLEIKR
B1 was tested, and the “binding activity to the infected cell surface” value ([1]; FIG. 2) was “had a binding activity”, the neutralizing activity [2] was “strong neutralizing activity” and the neutralizing activity (SVPC13) was “clear neutralizing activity”. For the same molecule, the neutralizing activity (SVPC15) was “clear neutralizing activity”, the neutralizing activity (93TH976.17) was “exhibited a neutralizing activity” and the neutralizing activity (93TH966.8) was “exhibited a neutralizing activity”. The Traget (gp120 [3]) was “CD4bs” and the “influence of sCD4 on reactivity with gp120” value [4] was “suppressed in the presence of sCD4”.

B2: 5G2: IgG1 κ monoclonal antibody to gp120 V3 loop; VH SEQ ID NO: 3, VL SEQ ID NO: 4; FERM BP-11021 (antibody, listed as Homo sapiens, V domains shown)
VH: EVQLVESGGGVVRPGNSLRLSCAASGIIFSTANLHWLRHVPGKGLEWVAIISYDGHRQYYADLVKGRFTISRDNSKNTLHLQMDGLTSDDTAVYYCAKDGADENNLGPAFDYWGRGTLVTVSS
VL: EIVLTQSPATLSVSPGEGATLSCRASQSISSNLAWYQQKPGQAPRLLIYGASTGATGIPARFSGSGSGTDFTLTISRLEPEDFAIYYCQQYGSLPITFGQGTRLEIKR
notes: IgG1 κ monoclonal antibody to gp120 V3 loop; FERM BP-11021
With B2 the “reactivity in the absence of sCD4” value [1] was “strong reactivity”, the neutralizing activity (strain 89.6) was “exhibited a neutralizing activity” and the neutralizing activity (strain JR-FL) was “exhibited a neutralizing activity”. The neutralizing activity [2] was “strong neutralizing activity”, the “combination effect on neutralizing activity” value (JR-FL strain) was “synergistic inhibitory effect” and the “neutralizing activity on various HIV-1 strains, overall” value [5] was “equivalent to that of a KD-247 antibody”.

B3: 0.5γ(1C10): human IgG1 κ monoclonal antibody to gp120 V3 loop; VH SEQ ID NO: 1, VL SEQ ID NO: 2; FERM BP-11060 (antibody, listed as Homo sapiens, V domains shown)
VH: EVQLVESGGGLIQPGGSLRLSCAASGFTVSSSSMSWVRQAPEKGLEWVSVVYSGGNTYNADSVKGRFSISRDNSKNTVYLQMNSLRADDTAVYYCARDLGGGDRSSDYWGQGTLVTVSS
VL: DIQLTQSPSSLSASVGDRVTITCRASESINTYLNWYQQRPGKAPKLLIYAASTLQTGVPSRFSGSGSGTLFTLTISSLQPEDLATYYCQQSFSTLPYTLGRGTKVEIKG
notes: human IgG1 κ monoclonal antibody to gp120 V3 loop; FERM BP-11060
In the case of B3, the “reactivity in the absence of sCD4” value [1] is reported as “strong reactivity”, the neutralizing activity (strain 89.6) is reported as “exhibited a neutralizing activity” and the neutralizing activity (strain JR-FL) is reported as “exhibited a neutralizing activity”. For the same molecule, the neutralizing activity [2] was “strong neutralizing activity”, the “viruses whose growth was suppressed 50% or more” value ([6]; at a concentration of 50 μg/ml) was 7/12 and the “viruses whose growth was suppressed 50% or more” value ([6]; at a concentration of 150 μg/ml) was 10/12. For the same molecule, the “combination effect on neutralizing activity” value (JR-FL strain) was “synergistic inhibitory effect”, the “neutralizing activity on various HIV-1 strains, overall” value [5] was “wide range of strong neutralizing activity” and the “reactivity of biotinylated antibody with gp120 in the presence of 0.5δ” value (gp120 [7]) was “significantly enhanced”.
